{"source": "patent US20230203467A1", "key": {"[1]": {"target": "VEGFR-2 receptor on transfected endothelial cells (PAE/VEGFR-2) (UniProt P35968)", "assay": "cell-based or functional assay"}, "[2]": {"target": "VEGFR-1 on transfected endothelial cells (PAE/VEGFR-1) (UniProt P17948)", "sequence (P17948 27-1338 limits assumed)": "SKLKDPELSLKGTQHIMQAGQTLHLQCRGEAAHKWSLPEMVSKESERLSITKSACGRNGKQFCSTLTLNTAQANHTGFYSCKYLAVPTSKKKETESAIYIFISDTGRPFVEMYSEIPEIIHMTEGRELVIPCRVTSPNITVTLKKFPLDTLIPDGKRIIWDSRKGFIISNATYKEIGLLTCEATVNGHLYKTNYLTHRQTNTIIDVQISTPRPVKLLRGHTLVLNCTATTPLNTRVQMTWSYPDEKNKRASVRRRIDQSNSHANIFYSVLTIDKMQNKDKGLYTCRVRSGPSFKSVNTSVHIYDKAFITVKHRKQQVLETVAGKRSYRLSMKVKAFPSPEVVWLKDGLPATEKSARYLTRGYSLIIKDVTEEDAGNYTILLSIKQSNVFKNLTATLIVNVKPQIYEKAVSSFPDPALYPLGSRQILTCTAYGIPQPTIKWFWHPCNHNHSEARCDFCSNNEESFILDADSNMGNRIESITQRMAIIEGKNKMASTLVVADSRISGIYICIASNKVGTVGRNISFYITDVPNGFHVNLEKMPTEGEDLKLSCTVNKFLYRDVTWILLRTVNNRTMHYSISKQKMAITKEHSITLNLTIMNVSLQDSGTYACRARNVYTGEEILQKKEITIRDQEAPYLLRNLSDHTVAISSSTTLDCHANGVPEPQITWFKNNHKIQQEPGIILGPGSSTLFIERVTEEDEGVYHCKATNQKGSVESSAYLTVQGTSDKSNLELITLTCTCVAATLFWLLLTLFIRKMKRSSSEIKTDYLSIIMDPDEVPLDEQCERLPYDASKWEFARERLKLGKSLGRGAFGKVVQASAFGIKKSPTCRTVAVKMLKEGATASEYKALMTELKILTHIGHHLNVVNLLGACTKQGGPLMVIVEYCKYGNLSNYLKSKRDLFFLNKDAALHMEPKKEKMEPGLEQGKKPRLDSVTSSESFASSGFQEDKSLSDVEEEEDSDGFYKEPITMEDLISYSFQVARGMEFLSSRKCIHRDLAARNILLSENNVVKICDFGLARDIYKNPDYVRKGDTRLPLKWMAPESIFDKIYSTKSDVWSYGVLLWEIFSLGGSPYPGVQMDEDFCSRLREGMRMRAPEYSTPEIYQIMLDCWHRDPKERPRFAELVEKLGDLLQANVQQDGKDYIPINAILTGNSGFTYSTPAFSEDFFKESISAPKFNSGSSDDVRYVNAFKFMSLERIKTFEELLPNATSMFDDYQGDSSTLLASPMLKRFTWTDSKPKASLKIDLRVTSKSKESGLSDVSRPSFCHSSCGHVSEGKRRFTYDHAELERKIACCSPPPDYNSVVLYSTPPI", "assay": "cell-based or functional assay"}}, "data": [{"substance": "GrB/VEGF121 (from UniProt P15692 27-147)", "values": [{"measurement": "IC50 nM, cytotoxicity on PAE/VEGFR-2 (+) cells", "setting": "[1]", "result": 15.3, "unit": "nM"}, {"measurement": "IC50 (nM) on PEA/VEGFR-2 cells, construct pre-incubated in FBS (4 h)", "setting": "[1]", "result": "> 100", "unit": "nM"}, {"measurement": "IC50 (nM) on PEA/VEGFR-2 cells, construct pre-incubated in PBS (4 h)", "setting": "[1]", "result": 4, "unit": "nM"}, {"measurement": "IC50 nM, cytotoxicity on PAE/VEGFR-1 (-) control cells", "setting": "[2]", "result": "> 1000", "unit": "nM"}, {"measurement": "IC50 (nM) on PEA/VEGFR-1 cells, construct pre-incubated in FBS (4 h)", "setting": "[2]", "result": "> 100", "unit": "nM"}, {"measurement": "IC50 (nM) on PEA/VEGFR-1 cells, construct pre-incubated in PBS (4 h)", "setting": "[2]", "result": "> 100", "unit": "nM"}]}, {"substance": "LA-GrB/VEGF121 (from UniProt P15692 27-147)", "values": [{"measurement": "IC50 (nM) on PEA/VEGFR-2 cells, construct pre-incubated in FBS (4 h)", "setting": "[1]", "result": 63, "unit": "nM"}, {"measurement": "IC50 (nM) on PEA/VEGFR-2 cells, construct pre-incubated in PBS (4 h)", "setting": "[1]", "result": 8, "unit": "nM"}, {"measurement": "IC50 (nM) on PEA/VEGFR-1 cells, construct pre-incubated in FBS (4 h)", "setting": "[2]", "result": "> 100", "unit": "nM"}, {"measurement": "IC50 (nM) on PEA/VEGFR-1 cells, construct pre-incubated in PBS (4 h)", "setting": "[2]", "result": "> 100", "unit": "nM"}]}, {"substance": "LP-GrB/VEGF121 (from UniProt P15692 27-147)", "values": [{"measurement": "IC50 (nM) on PEA/VEGFR-2 cells, construct pre-incubated in FBS (4 h)", "setting": "[1]", "result": 67, "unit": "nM"}, {"measurement": "IC50 (nM) on PEA/VEGFR-2 cells, construct pre-incubated in PBS (4 h)", "setting": "[1]", "result": 2, "unit": "nM"}, {"measurement": "IC50 (nM) on PEA/VEGFR-1 cells, construct pre-incubated in FBS (4 h)", "setting": "[2]", "result": "> 100", "unit": "nM"}, {"measurement": "IC50 (nM) on PEA/VEGFR-1 cells, construct pre-incubated in PBS (4 h)", "setting": "[2]", "result": "> 100", "unit": "nM"}]}, {"substance": "EAPVPN-GrB/VEGF121 (from UniProt P15692 27-147)", "values": [{"measurement": "IC50 (nM) on PEA/VEGFR-2 cells, construct pre-incubated in PBS (4 h)", "setting": "[1]", "result": 5, "unit": "nM"}, {"measurement": "IC50 (nM) on PEA/VEGFR-1 cells, construct pre-incubated in PBS (4 h)", "setting": "[2]", "result": "> 100", "unit": "nM"}]}, {"substance": "EA-GrB/VEGF121 (from UniProt P15692 27-147)", "values": [{"measurement": "IC50 (nM) on PEA/VEGFR-2 cells, construct pre-incubated in FBS (4 h)", "setting": "[1]", "result": 39, "unit": "nM"}, {"measurement": "IC50 (nM) on PEA/VEGFR-2 cells, construct pre-incubated in PBS (4 h)", "setting": "[1]", "result": 8, "unit": "nM"}, {"measurement": "IC50 (nM) on PEA/VEGFR-1 cells, construct pre-incubated in FBS (4 h)", "setting": "[2]", "result": "> 100", "unit": "nM"}, {"measurement": "IC50 (nM) on PEA/VEGFR-1 cells, construct pre-incubated in PBS (4 h)", "setting": "[2]", "result": "> 100", "unit": "nM"}]}, {"substance": "PVPN-GrB/VEGF121 (from UniProt P15692 27-147)", "values": [{"measurement": "IC50 (nM) on PEA/VEGFR-2 cells, construct pre-incubated in PBS (4 h)", "setting": "[1]", "result": 8, "unit": "nM"}, {"measurement": "IC50 (nM) on PEA/VEGFR-1 cells, construct pre-incubated in PBS (4 h)", "setting": "[2]", "result": "> 100", "unit": "nM"}]}]}
